No end group written: not given here. *: point of attachment. FITC = O=C1OC2(c3ccc(O)cc3Oc3cc(O)ccc32)c2ccc(NC(=S)*)cc21
Columns and labels:
DnaK, untreated control [1] = molecular target: T1, DnaK, untreated control (E. coli, UniProt P0A6Y8 1-638); assay: cell-based or functional assay
[2] = molecular target: T2, DnaK, glutathionylated at Cys-15 (E. coli, UniProt P0A6Y8 1-638, S-glutathionylated cysteine at Cys-15); assay: cell-based or functional assay
DnaK, untreated control [3] = molecular target: T1, DnaK, untreated control; assay: pull-down; 2 μM His6-DnaJ, 5 μM His6-GrpE or 2 μM His6-Smt3-σ^32 with 20 μM DnaK, Buffer B, 1 mM ADP, 8 °C, 60 min; Ni-Sepharose HP; wash 300 mM KCl, 40 mM imidazole; elution 300 mM imidazole; SDS-PAGE, Coomassie; settings: both partners purified
DnaK, deglutathionylated [4] = molecular target: T3, DnaK, deglutathionylated (E. coli, UniProt P0A6Y8 1-638); assay: as above; settings: both partners purified
T3 construct: DnaK (bacterial Hsp70), E. coli, gene dnaK cloned from genomic DNA of E. coli C41 cells; primers from the start to the stop codon; also called deglutathionylated DnaK; not shown: His6, N-terminal, cleaved; Smt3, N-terminal, cleaved

[5] = molecular target: T2, DnaK, glutathionylated at Cys-15; assay: as above; settings: both partners purified
DnaK, untreated control [6] = molecular target: T1, DnaK, untreated control; assay: fluorescence polarisation; steady state; 20 nM FITC-…, increasing concentrations of DnaK, Buffer B, room temperature; ATP state; settings: both partners purified
DnaK, untreated control [7] = molecular target: T1, DnaK, untreated control; assay: fluorescence polarisation; steady state; 20 nM FITC-…, increasing concentrations of DnaK, 60 min incubation, Buffer B (50 mM Tris-HCl pH 7.5, 100 mM KCl, 5 mM MgCl2), room temperature; apo or ADP state; single site binding model; settings: both partners purified
DnaK, deglutathionylated [8] = molecular target: T3, DnaK, deglutathionylated; assay: as above; settings: both partners purified
[9] = molecular target: T2, DnaK, glutathionylated at Cys-15; assay: as above; settings: both partners purified

T1 sequence (P0A6Y8 whole entry): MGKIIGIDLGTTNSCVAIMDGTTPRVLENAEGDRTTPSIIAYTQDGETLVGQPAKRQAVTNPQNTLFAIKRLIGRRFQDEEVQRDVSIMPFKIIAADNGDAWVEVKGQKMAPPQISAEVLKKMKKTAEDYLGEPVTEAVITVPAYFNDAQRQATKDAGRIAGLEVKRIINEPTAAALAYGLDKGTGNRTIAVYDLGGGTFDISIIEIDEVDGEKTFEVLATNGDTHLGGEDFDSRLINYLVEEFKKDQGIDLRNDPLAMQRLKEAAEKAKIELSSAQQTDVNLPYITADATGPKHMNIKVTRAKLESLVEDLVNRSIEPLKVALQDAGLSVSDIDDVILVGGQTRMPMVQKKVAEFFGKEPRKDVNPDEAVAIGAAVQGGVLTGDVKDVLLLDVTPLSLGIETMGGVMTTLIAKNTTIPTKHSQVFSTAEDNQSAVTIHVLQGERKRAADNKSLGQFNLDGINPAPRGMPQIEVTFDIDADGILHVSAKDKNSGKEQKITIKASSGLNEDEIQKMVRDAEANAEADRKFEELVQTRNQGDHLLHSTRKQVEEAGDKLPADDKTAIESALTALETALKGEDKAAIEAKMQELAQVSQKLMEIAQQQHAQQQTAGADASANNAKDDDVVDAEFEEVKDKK
T3 sequence (P0A6Y8 whole entry): as above
T2 sequence (P0A6Y8 whole entry): as above

| binding result (DnaK, untreated control [3]) | binding result (DnaK, deglutathionylated [4]) | binding result [5] | Binder | further results |
| --- | --- | --- | --- | --- |
| binds | binds | binds | His6-GrpE (natural protein, E. coli, UniProt P09372 1-197, looked up, GrpE (nucleotide exchange factor of DnaK), E. coli, gene grpE cloned from genomic DNA of E. coli C41 cells; primers from the start to the stop codon; Uncleavable His6 tag from the mini pRSETa plasmid; not shown: His6, N-terminal, kept) MSSKEQKTPEGQAPEEIIMDQHEEIEAVEPEASAEQVDPRDEKVANLEAQLAEAQTRERDGILRVKAEMENLRRRTELDIEKAHKFALEKFINELLPVIDSLDRALEVADKANPDMSAMVEGIELTLKSMLDVVRKFGVEVIAETNVPLDPNVHQAIAMVESDDVAPGNVLGIMQKGYTLNGRTIRAAMVTVAKAKA |  |
| binds | binds | binds | His6-Smt3-σ^32 (natural protein, E. coli, UniProt P0AGB3 1-284, looked up, σ^32 subunit of RNA polymerase (heat shock sigma factor), E. coli, gene rpoH cloned from genomic DNA of E. coli C41 cells; primers from the start to the stop codon; The His6-Smt3 tag (pET28a-SMT3) was not cleaved from σ^32; order of the tags from the printed label; also called heat shock transcription factor σ^32; not shown: His6, N-terminal, kept; Smt3, N-terminal, kept) MTDKMQSLALAPVGNLDSYIRAANAWPMLSADEERALAEKLHYHGDLEAAKTLILSHLRFVVHIARNYAGYGLPQADLIQEGNIGLMKAVRRFNPEVGVRLVSFAVHWIKAEIHEYVLRNWRIVKVATTKAQRKLFFNLRKTKQRLGWFNQDEVEMVARELGVTSKDVREMESRMAAQDMTFDLSSDDDSDSQPMAPVLYLQDKSSNFADGIEDDNWEEQAANRLTDAMQGLDERSQDIIRARWLDEDNKSTLQELADRYGVSAERVRQLEKNAMKKLRAAIEA |  |

Continued, binder first:

| Binder | binding result (DnaK, untreated control [3]) | binding result (DnaK, deglutathionylated [4]) | binding result [5] | further results |
| --- | --- | --- | --- | --- |
| His6-DnaJ (natural protein, E. coli, UniProt P08622 1-376, looked up) MAKQDYYEILGVSKTAEEREIRKAYKRLAMKYHPDRNQGDKEAEAKFKEIKEAYEVLTDSQKRAAYDQYGHAAFEQGGMGGGGFGGGADFSDIFGDVFGDIFGGGRGRQRAARGADLRYNMELTLEEAVRGVTKEIRIPTLEECDVCHGSGAKPGTQPQTCPTCHGSGQVQMRQGFFAVQQTCPHCQGRGTLIKDPCNKCHGHGRVERSKTLSVKIPAGVDTGDRIRLAGEGEAGEHGAPAGDLYVQVQVKQHPIFEREGNNLYCEVPINFAMAALGGEIEVPTLDGRVKLKVPGETQTGKLFRMRGKGVKSVRGGAQGDLLCRVVVETPVGLNERQKQLLQELQESFGGPTGEHNSPRSKSFFDGVKKFFDDLTR |  |  |  | acceleration of ATP turnover of DnaK by DnaJ, malachite green ATPase assay, DnaJ to DnaK ratio 2:1 (DnaK, untreated control [1]): 6 fold; acceleration of ATP turnover of DnaK by DnaJ, malachite green ATPase assay, DnaJ to DnaK ratio 2:1 [2]: 2 fold |
| {FITC}-ALLLSAPRR (also called FAR) [FITC-ALLLSAPRR peptide] |  |  |  | Kd (DnaK, untreated control [6]): ≥ 10 µM; Kd (DnaK, untreated control [7]): 0.2 to 0.5 µM; Kd (DnaK, deglutathionylated [8]): 0.2 to 0.5 µM; Kd [9]: 4 to 6 µM |
